This is an account of results in PMC5934625, “A structurally conserved motif in γ-herpesvirus uracil-DNA glycosylases elicits duplex nucleotide-flipping”.

The data set has as its target T1, kUNG (kUNGΔ18), uracil-DNA glycosylase (Kaposi's sarcoma-associated herpesvirus …, UniProt F5HFA1 19-255).
T1 sequence: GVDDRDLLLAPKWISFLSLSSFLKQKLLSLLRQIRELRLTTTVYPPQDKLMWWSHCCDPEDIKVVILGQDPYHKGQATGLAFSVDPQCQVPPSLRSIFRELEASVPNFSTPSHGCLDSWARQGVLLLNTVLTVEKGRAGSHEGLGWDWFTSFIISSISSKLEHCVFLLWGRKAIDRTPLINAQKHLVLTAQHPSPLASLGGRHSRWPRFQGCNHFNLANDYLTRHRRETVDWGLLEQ
The experiment in a line: X-ray crystallography; product complex after uracil cleavage; 100 mM Mg acetate in crystallisation; Crystallisation: protein:DNA 1:1.2, annealing buffer 20 mM Tris-HCl pH 7.4, 100 mM NaCl, 20 mM MgCl2; crystals in 100 mM sodium acetate pH 4.5, 100 mM Mg acetate, 8% PEG 8000, 16 °C. Km/Vmax of mutants (Table 3) are turnover only and left out. Conditions: protein: recombinant; tags: N-terminal 6xHis-TEV cleaved; Ser-Ala-Ser remains; label: 5'-FAM on strand 1; 5' overhang 1 nt (strand 1); U:A pair.

B1: 5'FAM-idu_2 duplex (dsDNA)
DNA 1: AAAGATAACATT
DNA 2: AATGTUATCTT
modifications: dU at position 6 of strand 2; converted to abasic site (beta-anomer deoxyribose) in the product complex, no density for uracil
Turning to B1, the binding result is recorded as “binds”.
